# T1: HPV16 E1 (Human papillomavirus type 16, UniProt P03114 1-649)
# T1 sequence: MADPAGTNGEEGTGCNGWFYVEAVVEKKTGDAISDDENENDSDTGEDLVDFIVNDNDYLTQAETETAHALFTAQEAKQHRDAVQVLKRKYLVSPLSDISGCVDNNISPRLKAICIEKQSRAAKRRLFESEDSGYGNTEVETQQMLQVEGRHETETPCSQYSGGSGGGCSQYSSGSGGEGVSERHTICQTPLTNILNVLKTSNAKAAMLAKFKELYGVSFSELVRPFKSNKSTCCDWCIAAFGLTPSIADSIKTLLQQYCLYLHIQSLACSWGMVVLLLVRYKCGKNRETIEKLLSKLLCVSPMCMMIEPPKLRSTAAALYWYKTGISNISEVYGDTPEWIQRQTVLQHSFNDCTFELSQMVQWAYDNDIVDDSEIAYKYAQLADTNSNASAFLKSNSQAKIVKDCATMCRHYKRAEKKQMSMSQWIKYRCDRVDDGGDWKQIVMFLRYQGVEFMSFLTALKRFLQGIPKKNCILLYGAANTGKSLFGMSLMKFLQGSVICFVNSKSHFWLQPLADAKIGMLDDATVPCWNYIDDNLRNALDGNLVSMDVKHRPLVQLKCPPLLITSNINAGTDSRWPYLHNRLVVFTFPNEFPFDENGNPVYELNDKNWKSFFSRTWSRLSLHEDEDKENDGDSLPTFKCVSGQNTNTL
# Tests used:
# HPV16 E1 = target: T1, HPV16 E1; test: fluorescence polarization; 5 mM Mg2+; FP: 20 mM Tris-HCl pH 7.0, 10 mM NaCl, 0.1 mg/ml BSA, 5 mM MgCl2, 1 mM DTT, room temperature, 60 min; 50 nM probe, 0-200 nM protein; conditions: protein: recombinant; tags: His (pET28a, Ni-NTA); Myc (co-IP); chain copies: 6; label: 5' Cy3; single strand
# HPV16 E2 [1] = target: T2, HPV16 E2 (Human papillomavirus type 16, UniProt P03120 1-365); test: as above; conditions: protein: recombinant; tags: His (pET28a, Ni-NTA); HA (blots); chain copies: 2; label: 5' Cy3; single strand
# HPV16 E2 [2] = target: T2, HPV16 E2; test: fluorescence polarization; 5 mM Mg2+; separate experiment alongside E1; FP: 20 mM Tris-HCl pH 7.0, 10 mM NaCl, 0.1 mg/ml BSA, 5 mM MgCl2, 1 mM DTT, room temperature, 60 min; 50 nM probe, 0-200 nM protein; conditions: protein: recombinant; tags: His (pET28a, Ni-NTA); HA (blots); chain copies: 2; label: 5' Cy3; single strand
# T2 sequence (P03120 whole entry): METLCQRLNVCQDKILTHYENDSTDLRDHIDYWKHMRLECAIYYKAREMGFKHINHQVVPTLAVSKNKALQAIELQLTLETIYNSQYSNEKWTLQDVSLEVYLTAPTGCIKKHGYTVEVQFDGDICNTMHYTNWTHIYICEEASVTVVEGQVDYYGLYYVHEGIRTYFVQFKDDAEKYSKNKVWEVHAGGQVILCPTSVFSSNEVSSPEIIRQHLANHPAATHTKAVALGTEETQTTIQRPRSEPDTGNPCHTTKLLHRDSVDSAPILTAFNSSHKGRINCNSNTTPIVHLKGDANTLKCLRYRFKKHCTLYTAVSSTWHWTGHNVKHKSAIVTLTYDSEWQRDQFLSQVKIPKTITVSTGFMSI
binder,measurement,setting,value
GCGTCTTTACGGGTGCTTAAAAACAAAAACAAAAACAAAA (ssDNA) [Cy3-labeled 40-nt ssDNA (FP probe)],Kd,HPV16 E1,172 ± 88 nM
same,Kd,HPV16 E2 [1],24 ± 8 nM
same,Kd,HPV16 E2 [2],28 ± 10 nM
